Values quoted from earlier work, collected in publication PMC6893859 (Regulatory toxicology and pharmacology : RTP, 2018).

What was measured:
patients = details: human, in vivo
humans = details: human, in vivo

Substance	safety and tolerability (patients)	tolerability (humans)
CER-001: complex between recombinant human ApoA-I and dipalmitoyl phosphatidylcholine and sphingomyelin	safe and well tolerated	–
CSL-112: reformulated reconstituted and purified ApoA1 (from CSL-111)	–	well tolerated
